Numbering of substitutions follows the chain as printed.
T1: human CEACAM5 on CEACAM5-expressing cancer cell lines (human, UniProt P06731 35-685)
T1 construct: whole, on cells; also called CEACAM5 on SK-CO-1, MKN-45, HPAF-II, SNU-C1, Ls174T, LoVo cells
T1 sequence (looked up): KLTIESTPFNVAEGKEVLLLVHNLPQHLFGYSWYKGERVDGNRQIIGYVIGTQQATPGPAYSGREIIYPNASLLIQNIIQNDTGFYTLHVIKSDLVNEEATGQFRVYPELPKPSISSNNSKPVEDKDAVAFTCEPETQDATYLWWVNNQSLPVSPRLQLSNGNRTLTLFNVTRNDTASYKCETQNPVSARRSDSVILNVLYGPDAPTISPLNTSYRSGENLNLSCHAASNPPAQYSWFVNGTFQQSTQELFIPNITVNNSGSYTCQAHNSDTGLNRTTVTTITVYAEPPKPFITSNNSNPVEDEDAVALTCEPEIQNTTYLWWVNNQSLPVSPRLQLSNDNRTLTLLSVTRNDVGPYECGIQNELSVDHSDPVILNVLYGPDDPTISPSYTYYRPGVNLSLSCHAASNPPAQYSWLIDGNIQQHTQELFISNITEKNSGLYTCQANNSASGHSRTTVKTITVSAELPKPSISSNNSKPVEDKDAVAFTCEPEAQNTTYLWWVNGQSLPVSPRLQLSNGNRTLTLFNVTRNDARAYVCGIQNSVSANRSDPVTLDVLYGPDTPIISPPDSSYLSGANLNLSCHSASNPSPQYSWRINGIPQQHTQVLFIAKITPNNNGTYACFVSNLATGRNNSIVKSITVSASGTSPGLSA

B1: K2AC84 (bispecific antibody, human IgG1, kappa, lambda)
heavy: not shown
light 1: QSVLTQPPSVSAAPGQKVTISCSGSSSNIGIGLVSWYQQLPGTAPKLLIYNVNTRPSGIPDRFSGSKSGTSATLGITGLQTGDEADYYCGTWDFSYRVDFGGGTKLTVLGQPKAAPSVTLFPPSSEELQANKATLVCLISDFYPGAVTVAWKADSSPVKAGVETTTPSKQSNNKYAASSYLSLTPEQWKSHRSYSCQVTHEGSTVEKTVAPTECS
light 2: not shown
notes: Kappa-lambda body; also called CD47xCEACAM5 bispecific antibody K2AC84; AC84 (CEACAM5 arm)
B2: K2AC100 (bispecific antibody, human IgG1, kappa, lambda)
heavy: not shown
light 1: B1 light 1 with I31Y, V52G, T54I
light 2: not shown
notes: Kappa-lambda body; also called CD47xCEACAM5 bispecific antibody K2AC100; AC100 (CEACAM5 arm)
B3: K2AC22 (bispecific antibody, human IgG1, kappa, lambda)
heavy: not shown
light 1: B1 light 1 with G30A, I31N, L33I, N51F, V52D, T54L, R97G, V98I, D99V
light 2: not shown
notes: Kappa-lambda body, human IgG1, one arm for CEACAM5 and one for CD47; comparison antibody from WO2019234576; also called state of the art bispecific CEAxCD47 antibody K2AC22; CD47xCEACAM5 bispecific antibody K2AC22

Target: T1, human CEACAM5 on CEACAM5-expressing …
Assay: flow cytometry on Ls174T cells (carry CEACAM5 and CD47), PE anti-human IgG Fc
Description: (§1) The binding of CD47×CEACAM5 bispecific antibodies was tested on CEACAM5-expressing human gastric adenocarcinoma cells (e.g. MKN-45), on CEACAM5-expressing human colorectal cancer cells (SK-CO-1, SNU-C1, Ls174T, and LoVo), and on CEACAM5-expressing pancreatic adenocarcinoma cells (HPAF-II).
(§2) Cells were harvested, counted, checked for viability and resuspended at 3×10⁶ cells/ml in FACS buffer (PBS 2% BSA, 0.1% NaN3). 100 μl of the cell suspension was distributed in V-bottom 96-well plates (3×10⁵ cells/well). The supernatant was removed by centrifugation 3 minutes at 4° C., 1300 rpm. Increasing concentrations of the antibody according to the invention were then added into the wells and incubated for 15 minutes at 4° C. Cells were washed twice with cold FACS buffer and re-incubated for further 15 minutes at 4° C. with the PE (R-phycoerythrin)-conjugated mouse anti-human IgG Fc secondary antibody (SouthernBiotech, pre-diluted 1:100 in FACS buffer). Cells were washed twice with cold FACS buffer and resuspended in 300 μl FACS buffer with 1:15000-diluted SytoxBlue (Life Technologies). Fluorescence, specifically mean fluorescence […] (MFI), was determined using a Cytoflex […] flow cytometer. Binding curves and […] and Emax values were obtained and calculated using GraphPad Prism7 software.

| EC50 | Emax (MFI) | Binder |
| --- | --- | --- |
| 5.6 nM | 89000 MFI | B1 |
| 4.5 nM | 70000 MFI | B2 |
| 28 nM | 73000 MFI | B3 |

Target: T1, human CEACAM5 on CEACAM5-expressing …
Assay: flow cytometry on MKN-45 cells (carry CEACAM5 and CD47), PE anti-human IgG Fc
Description: as §1, §2

| EC50 | Emax (MFI) | Binder |
| --- | --- | --- |
| 7.3 nM | 1.52e+06 MFI | B1 |
| 8.7 nM | 1.3e+06 MFI | B2 |
| 21.3 nM | 1.16e+06 MFI | B3 |

Target: T1, human CEACAM5 on CEACAM5-expressing …
Assay: flow cytometry on SK-CO-1 cells (carry CEACAM5 and CD47), PE anti-human IgG Fc
Description: as §1, §2

| EC50 | Emax (MFI) | Binder |
| --- | --- | --- |
| 12 nM | 1e+06 MFI | B1 |
| 14.7 nM | 900000 MFI | B2 |
| 24 nM | 520000 MFI | B3 |

Target: T1, human CEACAM5 on CEACAM5-expressing …
Assay: flow cytometry on LoVo cells (carry CEACAM5 and CD47), PE anti-human IgG Fc
Description: as §1, §2

| EC50 | Emax (MFI) | Binder |
| --- | --- | --- |
| 16 nM | 360000 MFI | B1 |
| 18.7 nM | 280000 MFI | B2 |
| 44 nM | 230000 MFI | B3 |

Target: T2, human CD47 expressed at the surface of MKN-45 cells (human, UniProt Q08722 19-323)
T2 construct: whole, on cells; MKN-45 cells express both CD47 and CEACAM5; also called hCD47
T2 sequence (Q08722 19-323): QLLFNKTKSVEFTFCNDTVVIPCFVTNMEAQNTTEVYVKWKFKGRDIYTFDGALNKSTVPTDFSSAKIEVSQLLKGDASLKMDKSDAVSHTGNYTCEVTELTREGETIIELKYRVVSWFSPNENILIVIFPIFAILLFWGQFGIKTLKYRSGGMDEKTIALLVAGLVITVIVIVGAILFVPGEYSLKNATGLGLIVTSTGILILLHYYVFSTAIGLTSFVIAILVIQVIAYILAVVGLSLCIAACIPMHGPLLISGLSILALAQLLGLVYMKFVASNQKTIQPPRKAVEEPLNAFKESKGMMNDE
Assay: CD47/SIRPα blocking assay on MKN-45 cells (carry CD47 and CEACAM5), imaging of bound SIRPα-mouseFc
Description: The cell-based assay monitoring the interaction of soluble SIRPa with human CD47 expressed at the surface of MKN-45 cells as described below was used for the detection of the blocking activity. Concentration-response experiments with bispecific antibodies according to the invention allowed determination of inhibition curves (see FIG. 4) and of IC50 values (see Table 12).
MKN-45 cancer cells, expressing both CD47 and CEACAM5, were stained with CFSE violet to allow the imaging system (CX5) to detect the cells. Briefly, 3'000 stained MKN-45 cells per well were seeded in a 384 optical well plate (Costar) and incubated for 50 minutes with increased concentrations of bispecific antibodies of the invention ([…] to 333 nM, in quadruplicates). Then, a fixed concentration of SIRPα-mouseFc premixed with anti-mouse IgG-Fc AF647 coupled antibody (Jackson Immunoresearch diluted 1:2000) was added at 50 ng/mL final. After an incubation of 3 hours and 30 minutes, images of the fluorescence signals emitted by the detected bound SIRPa on the plates were acquired with the imaging system (CX5, Thermo Fisher). Fluorescence signals (mean fluorescence intensity MFI) were plotted according to the dose range tested, and IC50 was calculated by the software (Prism, GraphPad).

| IC50 | Binder |
| --- | --- |
| 0.04 nM | B1 |
| 0.09 nM | B2 |
| 1.2 nM | B3 |

Reference: patent publication US20220195067A1 (LAMKAP BIO BETA, published 2022)
